Values of other authors as cited in paper PMC8141935.

Biological target: GABAA receptor α3 subunit intracellular loop (UniProt P34903)
Sequence (P34903 361-457): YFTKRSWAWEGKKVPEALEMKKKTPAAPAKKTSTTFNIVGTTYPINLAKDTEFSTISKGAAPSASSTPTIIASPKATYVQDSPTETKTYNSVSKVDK

gephyrin, sequence (Q9NQX3 whole entry): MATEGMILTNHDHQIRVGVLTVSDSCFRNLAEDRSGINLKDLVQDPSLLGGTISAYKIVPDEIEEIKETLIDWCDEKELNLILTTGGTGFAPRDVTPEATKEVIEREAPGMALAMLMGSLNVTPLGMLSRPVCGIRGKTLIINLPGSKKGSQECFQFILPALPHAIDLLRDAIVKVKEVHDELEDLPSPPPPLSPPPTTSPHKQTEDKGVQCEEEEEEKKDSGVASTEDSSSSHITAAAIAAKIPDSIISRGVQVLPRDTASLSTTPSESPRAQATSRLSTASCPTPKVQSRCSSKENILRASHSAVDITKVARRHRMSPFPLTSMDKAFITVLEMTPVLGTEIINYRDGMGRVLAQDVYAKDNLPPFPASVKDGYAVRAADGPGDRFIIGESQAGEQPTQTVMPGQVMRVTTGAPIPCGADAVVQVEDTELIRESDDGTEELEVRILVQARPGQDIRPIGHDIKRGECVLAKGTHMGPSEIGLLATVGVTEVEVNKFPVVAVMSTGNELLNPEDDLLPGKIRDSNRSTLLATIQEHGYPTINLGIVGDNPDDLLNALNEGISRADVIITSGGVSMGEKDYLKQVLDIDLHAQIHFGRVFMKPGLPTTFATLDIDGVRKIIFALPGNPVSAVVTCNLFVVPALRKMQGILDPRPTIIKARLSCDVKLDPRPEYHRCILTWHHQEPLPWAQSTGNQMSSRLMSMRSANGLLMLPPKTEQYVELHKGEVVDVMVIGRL

Kd: 5.3 µM
Substance: gephyrin (from UniProt Q9NQX3)
